Test results from publication PMC10002811, “Timed material self-assembly controlled by circadian clock proteins” (ArXiv, 2024).
Substitutions are numbered along the chain they refer to. Names and notes keep the numbering of the source.

Experiments:
Conditions in all cases: both partners purified
[1] = target: T1, pS KaiC (KaiC-EA; S431E, T432A) (UniProt Q79PF4 1-519, S431E | T432A); test: fluorescence polarisation; colloid-linking conditions: 5.5 μM KaiB (55% b-KaiB), 6.5 μM KaiC (wild-type, pT or pS), 2.2 μM KaiA, 0.4 μM FITC-labeled KaiB K25C; time course
T1 construct: KaiC, circadian clock protein of cyanobacteria, phosphomimetic of the pS431 (night) state; also called pS KaiC mutant; source: recombinantly expressed and purified as previously described
T1 sequence (looked up): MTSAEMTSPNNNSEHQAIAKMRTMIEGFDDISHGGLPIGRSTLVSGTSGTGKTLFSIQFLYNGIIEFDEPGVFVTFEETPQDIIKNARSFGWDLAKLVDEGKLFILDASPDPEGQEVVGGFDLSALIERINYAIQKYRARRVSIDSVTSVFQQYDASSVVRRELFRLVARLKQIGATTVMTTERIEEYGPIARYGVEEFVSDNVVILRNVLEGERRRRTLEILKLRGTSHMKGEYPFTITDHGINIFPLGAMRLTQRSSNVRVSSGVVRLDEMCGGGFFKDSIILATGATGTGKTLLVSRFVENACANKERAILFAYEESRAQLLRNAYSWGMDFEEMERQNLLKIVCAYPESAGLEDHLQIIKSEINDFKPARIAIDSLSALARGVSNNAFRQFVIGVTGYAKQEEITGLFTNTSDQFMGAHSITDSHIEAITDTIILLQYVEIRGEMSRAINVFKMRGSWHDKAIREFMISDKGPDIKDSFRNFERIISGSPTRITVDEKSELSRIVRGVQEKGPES

KaiC (wild-type) [2] = target: T2, KaiC (wild-type) (UniProt Q79PF4 1-519); test: fluorescence polarisation; standard oscillator reaction: 1.5 μM KaiA, 3.5 μM KaiC, 3.5 μM KaiB at different ratios of KaiB and b-KaiB, 0.2 μM FITC-labeled KaiB K25C; time course over 144 hrs
T2 construct: KaiC, circadian clock protein of cyanobacteria; hexameric ring; In reactions with KaiA the phosphorylation of S431 and T432 cycles over about 24 h; also called WT KaiC; wild-type KaiC; source: recombinantly expressed and purified as previously described
T2 sequence (looked up): T1 sequence (looked up) with E431S, A432T

[3] = target: T1, pS KaiC (KaiC-EA; S431E, T432A); test: pull-down; 6.5 μM KaiC (wild-type, pT or pS) and 5.5 μM KaiB (55% b-KaiB, 45% unlabeled KaiB) in Kai buffer (10% glycerol, 150 mM NaCl, 20 mM Tris-HCl pH 8.0, 5 mM MgCl2, 0.5 mM EDTA, 1 mM ATP); 8 hr at 30°C; b-KaiB and partners removed with streptavidin-coated magnetic beads; supernatant analysed by SDS-PAGE
KaiC (wild-type) [4] = target: T2, KaiC (wild-type); test: as above

B1: FITC-labeled KaiB K25C (natural protein, UniProt Q79PF5 1-102, looked up)
chain: MSPRKTYILKLYVAGNTPNSVRALCTLKNILEVEFQGVYALKVIDVLKNPQLAEEDKILATPTLAKVLPLPVRRIIGDLSDREKVLIGLDLLYGELQDSDDF
modifications: FITC label
notes: KaiB, circadian clock protein of cyanobacteria, with K25C; also called fluorescently labeled KaiB
[1]
  binding result: binds
KaiC (wild-type) [2]
  binding result: binds

B2: biotinylated KaiB (natural protein, UniProt Q79PF5 1-102, looked up)
chain: B1 chain with C25K
modifications: biotin, amine-reactive (potential sites: lysine residues); EZ-Link-Sulfo-NHS-LC-Biotin at a 50x molar excess to KaiB
notes: KaiB, circadian clock protein of cyanobacteria; In the assays b-KaiB was mixed with unlabeled KaiB (55% b-KaiB, 45% KaiB); also called b-KaiB; source: recombinantly expressed and purified as previously described; biotinylated with EZ-Link-Sulfo-NHS-LC-Biotin
[3]
  binding result: binds
KaiC (wild-type) [4]
  binding result: binds
